Results published in US20080267989A1.

B1: 16-mer peptide harboring the 2F5 epitope (…) (peptide)
peptide: NEQELLELDKWASLWN

Assays:
[1] = biological target: 2F5 (broadly neutralizing human monoclonal antibody to the gp41 MPR); assay: cell-based or functional assay
[2] = biological target: 2F5 (broadly neutralizing human monoclonal antibody to the gp41 MPR); assay: competition ELISA, peptide serially diluted with 1 ug/ml 2F5 on NE3-captured HBsAg-MPR particles

Molecule	neutralization activity of 2F5 adsorbed out, SF162.LS virus (TZM-B1 cells, luciferase) [1] [%]	neutralization activity of 2F5 adsorbed out, YU2.5G3 virus (TZM-B1 cells, luciferase) [1] [%]	fold enhancement of 2F5 binding to HBsAg-MPR particle [2] [fold]
HBsAg-MPR particles (HBsAg with the HIV-1 gp41 membrane proximal region at the C-terminus)	21	10	–
B1	–	–	2
